Measured values published in patent US20230144447A1 (published 2023).

B1: CAR-T22.13 chimeric antigen receptor (anti-CD22 scFv from antibody 16F7, CD8 hinge and transmembrane region, 4-1BB, CD3 zeta), on primary human T cells (other)
chain: EVQLVQSGAEVKKPGESLKISCKGSGYNFTSYWIGWVRQMPGKGLEWMGIIYPGDSDTRYSPSFQGQVTISADKSISTAYLQWSSLKASDTAMYYCATPTYYFGSVAFDIWGQGTMVTVSSGGGGSGGGGSGGGGSEIVLTQSPDFQSVTPKEKVTITCRASQSIGSSLHWYQQKPDQSPKLLIKYASQSFSGVPSRFSGSGSGTDFTLTINSLEAEDAAAYYCHQSSSLPYTFGQGTKLEIKFVPVFLPAKPTTTPAPRPPTPAPTIASQPLSLRPEACRPAAGGAVHTRGLDFACDIYIWAPLAGTCGVLLLSLVITLYCKRGRKKLLYIFKQPFMRPVQTTQEEDGCSCRFPEEEEGGCELRVKFSRSADAPAYQQGQNQLYNELNLGRREEYDVLDKRRGRDPEMGGKPRRKNPQEGLYNELQKDKMAEAYSEIGMKGERRRGKGHDGLYQGLSTATKDTYDALHMQALPPR
notes: CAR on the membrane of lentivirus-transduced T cells; also called CART-CD22.13; CAR22.13
B2: CAR-T22.14 chimeric antigen receptor (anti-CD22 scFv from antibody 4G6, CD8 hinge and transmembrane region, 4-1BB, CD3 zeta), on primary human T cells (other)
chain: QVQLVQSGAEVKKPGSSVKVSCKPSGDTFSNYAISWVRQAPGQGLEWMGRIIPILGMAIYAPKFQGRVTITADKSTNTAFMDLTSLYFEDTAVYYCARAPTYWGSKDYFDYWGQGTLVTVSSGGGGSGGGGSGGGGSAIQLTQSPSSLSASVGDRVTITCRASQDISSGLAWYQQKPGTAPKLLIYDASSLESGVPSRFSGSGSGTDFTLTISSLQPDDFATYYCQQFNSFPYTFGQGTKLEIKFVPVFLPAKPTTTPAPRPPTPAPTIASQPLSLRPEACRPAAGGAVHTRGLDFACDIYIWAPLAGTCGVLLLSLVITLYCKRGRKKLLYIFKQPFMRPVQTTQEEDGCSCRFPEEEEGGCELRVKFSRSADAPAYQQGQNQLYNELNLGRREEYDVLDKRRGRDPEMGGKPRRKNPQEGLYNELQKDKMAEAYSEIGMKGERRRGKGHDGLYQGLSTATKDTYDALHMQALPPR
notes: CAR on the membrane of lentivirus-transduced T cells; also called CART-CD22.14; CAR22.14

Molecular target: T1, recombinant human CD22 protein with Fc segment (staining reagent) (human, UniProt P20273 20-687)
T1 construct: Reagent used for flow cytometry staining of the CAR; also called Fc fragment of a recombinant human CD22 protein; Fc segment of recombinant human CD22 protein; not shown: Fc segment
T1 sequence (looked up): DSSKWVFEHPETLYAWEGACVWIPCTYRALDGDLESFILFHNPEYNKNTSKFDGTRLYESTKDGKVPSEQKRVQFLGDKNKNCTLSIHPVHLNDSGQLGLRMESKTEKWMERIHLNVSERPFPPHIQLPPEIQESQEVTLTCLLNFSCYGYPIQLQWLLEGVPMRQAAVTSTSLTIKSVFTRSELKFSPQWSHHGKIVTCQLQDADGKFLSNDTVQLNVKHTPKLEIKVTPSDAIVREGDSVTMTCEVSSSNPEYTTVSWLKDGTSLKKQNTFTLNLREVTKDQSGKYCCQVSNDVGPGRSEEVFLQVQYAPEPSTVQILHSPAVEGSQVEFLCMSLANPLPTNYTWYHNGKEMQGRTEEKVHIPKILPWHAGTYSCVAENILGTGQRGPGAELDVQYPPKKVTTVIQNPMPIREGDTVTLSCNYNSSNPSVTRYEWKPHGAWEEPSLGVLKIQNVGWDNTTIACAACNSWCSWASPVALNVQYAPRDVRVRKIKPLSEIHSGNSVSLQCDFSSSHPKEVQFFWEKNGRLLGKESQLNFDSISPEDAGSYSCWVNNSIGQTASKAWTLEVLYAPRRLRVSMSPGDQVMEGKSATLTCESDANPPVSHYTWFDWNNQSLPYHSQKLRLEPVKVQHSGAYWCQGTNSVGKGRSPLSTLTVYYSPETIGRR
Assay: flow cytometry of CAR-T cells stained with recombinant human CD22-Fc protein, with untransduced T cells as control
Description: 0.2×10⁶ of CART-CD22.5, CART-CD22.13 and CART-CD22.14 sample cells cultured to Day 6 in Example 2 (FIG. 2) were taken, and, after staining the Fc segment of recombinant human CD22 protein, the expression level of CAR-CD22 protein on the surface of T cell membranes was analyzed by flow cytometry, with untransduced T cells (NT cells) used as control.

Row | Binder | binding result
1 | B1 | binds
2 | B2 | binds
